Results taken from patent US20050282181A1 (published 2005).

Molecular target: T1, biotinylated soluble human IL-1RI ectodomain (human, UniProt P14778 18-336, biotinylated with EZ-Link Sulfo-NHS-SS-Biotin, approaching 2 mol biotin/mol receptor)
T1 construct: extracellular domain; also called biotinylated IL-1RI; biotinylated human IL-1RI
T1 sequence (looked up): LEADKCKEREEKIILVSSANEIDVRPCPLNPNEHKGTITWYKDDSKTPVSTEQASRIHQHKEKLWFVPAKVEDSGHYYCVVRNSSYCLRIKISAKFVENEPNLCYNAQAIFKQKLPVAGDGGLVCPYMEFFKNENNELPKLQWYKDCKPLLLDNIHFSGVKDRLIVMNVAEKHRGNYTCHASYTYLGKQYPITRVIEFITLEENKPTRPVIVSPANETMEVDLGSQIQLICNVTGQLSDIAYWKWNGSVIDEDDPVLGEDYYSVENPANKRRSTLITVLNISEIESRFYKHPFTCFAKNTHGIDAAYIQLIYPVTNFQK
Experiment: SPR, IL-1α binding to biotinylated receptor

Kd: 1 nM
B1: human IL-1α (ligand, UniProt P01583 113-271, looked up)
chain: SAPFSFLSNVKYNFMRIIKYEFILNDALNQSIIRANDQYLTAAALHNLDEAVKFDMGAYKSSKDDAKITVILRISKTQLYVTAQDEDQPVLLKEMPEIPKTITGSETNLLFFWETHGTKNYFTSVAHPNLFIATKQDYWVCLAGGPPSITDFQILENQA
